The supplement of paper PMC9170038

System: MS2 coat protein
Experiment: apparent KD of MS2 coat protein; designed switch direction (-1 OFF switch, 1 ON switch): 1; higher = weaker reporter binding
How it was run: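 Designed RNA switches sharing common flanks were transcribed on Illumina chips by stalled E. coli RNA polymerase. They were titrated with SNAP-549-labelled MS2 coat protein, from 0.7 or 1.5 nM doubling to 3 µM, in Tris-HCl pH 7.5 buffer with KCl, MgCl2, BSA, DTT, tRNA and Tween-20. Titrations ran without input, with 200 uM small-molecule ligand, or with an oligonucleotide input. The apparent KD of each design is the median over its clusters, after curve-fitting of normalised cluster fluorescence.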

[1] = Eterna round: R95, input ligand: FMN 200 uM
[2] = Eterna round: R95, input ligand: microRNA oligo, concentration not stated
[3] = Eterna round: R95, input ligand: none
[4] = input ligand: microRNA oligo, concentration not stated

## AGUCCAGCCUAAGCUGGACAAAAGCAUGUACAUGAGGAUCACCCAUGUUCAUGUACAAGCUUUUUGCUCGUCUUAAA [Mat - hsa-mir-208a - Mod of JL - 54] (puzzle: Sensor for hsa-mir-208a)
[1]
  apparent KD of MS2 coat protein: 544 nM
[2]
  apparent KD of MS2 coat protein: 15.1 nM
[3]
  apparent KD of MS2 coat protein: 447 nM

## GUGGUCAGACAUGAGGAUCACCCAUGUGGAAUAAAUAACAACUAGGAUAUGUAAUAUAGGAUAUAACAGAAGGAGUGAUUGGUG (Eterna round: R96, puzzle: Same State NG 3)
[4]
  apparent KD of MS2 coat protein: 111 nM

## AUUAUUUCAUGAGGAUAUGGCACCUUAUUGGUGCCAGAAGGCAUGUCAUUAGACAUGAGGAUCACCCAUGUAUUAUAUUAUAUA [Fiskers NG1ss - 13] (Eterna round: R96, puzzle: Same State NG 1)
Input ligand: FMN 200 uM
  apparent KD of MS2 coat protein: 41.5 nM
[4]
  apparent KD of MS2 coat protein: 392 nM
Input ligand: none
  apparent KD of MS2 coat protein: 534 nM

## AUUAUUUAUGCAGGAUAUGAUUAACAUGAGGAUCACCCAUGUGGUGUUGUGAGUAAGGAGAGUGAUCAGAAGGGCAUUUUGUUU [JMF's solution 51] (Eterna round: R96, puzzle: Same State NG 2)
Input ligand: FMN 200 uM
  apparent KD of MS2 coat protein: 794 nM
[4]
  apparent KD of MS2 coat protein: 321 nM
Input ligand: none
  apparent KD of MS2 coat protein: 451 nM

## ACAUGAGAGAAAGGAUAUCUUGUACCUACAUGUGACAUGAGGAUCACCCAUGUGGUAAGUAUGACAGAGAAGGUUCAGAUAUGU [Equivalance 71 - Jieux - Same State NG 2] (Eterna round: R96, puzzle: Same State NG 2)
Input ligand: FMN 200 uM
  apparent KD of MS2 coat protein: 38.7 nM
[4]
  apparent KD of MS2 coat protein: 61.1 nM
Input ligand: none
  apparent KD of MS2 coat protein: 86.3 nM

## GGAAACUUGAGAGGAUAUGUAGAGGAUCACCCUACAGAAGGCUCAAAAGAGAGGAUAUGUAGAGGAUCACCCUACAGAAGGCUC [pwkr ssNG DX.11] (Eterna round: R96, puzzle: Same State NG 1)
Input ligand: FMN 200 uM
  apparent KD of MS2 coat protein: 24.9 nM
[4]
  apparent KD of MS2 coat protein: 23.7 nM
Input ligand: none
  apparent KD of MS2 coat protein: 33.1 nM

## UCGGGCGUACUUGCUGACAUGAGGAUCACCCAUGUCCUUGGACAGGAUAUGGUUCCGUUUCGGUUCCAGAAGGUCCUGGCUGCU [salish99_SSNG3_r04_320] (Eterna round: R96, puzzle: Same State NG 3)
Input ligand: FMN 200 uM
  apparent KD of MS2 coat protein: 31.8 nM
[4]
  apparent KD of MS2 coat protein: 25.5 nM
Input ligand: none
  apparent KD of MS2 coat protein: 40.9 nM

## UGGUACAUGGGAGGAUAUCAUGUAGAAACAUGAGGAUCACCCAUGUAGAUGGCACGAUUCGUGAAUGAGAAGGCCCAUGUACCU [JL SSNG1 3.60] (Eterna round: R96, puzzle: Same State NG 2)
Input ligand: FMN 200 uM
  apparent KD of MS2 coat protein: 36.8 nM
[4]
  apparent KD of MS2 coat protein: 38.2 nM
Input ligand: none
  apparent KD of MS2 coat protein: 52.8 nM

## GUUACAUGAGGAUCACCCAUGUAUGUGUGGGAGUAAGUGUCUUAGGAUAUCUAGUAUUUAAAUUAAGAGAAGGAAGAUUGUUGU [JMF's solution 9] (Eterna round: R96, puzzle: Same State NG 3)
Input ligand: FMN 200 uM
  apparent KD of MS2 coat protein: 117 nM
[4]
  apparent KD of MS2 coat protein: 84.8 nM
Input ligand: none
  apparent KD of MS2 coat protein: 113 nM

## CUACGAGCGCCACAGGAUAUACUGAGACUCACAUGAGGAUCACCCAUGUCCAAUUCUCCCAAAUAGUAGAAGGGUGACGCGCUCG [Maenve] (Eterna round: R96, puzzle: Same State 2)
Input ligand: FMN 200 uM
  apparent KD of MS2 coat protein: 35.5 nM
[4]
  apparent KD of MS2 coat protein: 426 nM
Input ligand: none
  apparent KD of MS2 coat protein: 562 nM

## GUGGUCUGACAUGAGGAUCACCCAUGUGGAAUAAAUACGGGUCAGGAUAUCUUGAGGAUCACCCAAGAGAAGGGACGGAUUGUU (Eterna round: R96, puzzle: Same State NG 3)
Input ligand: FMN 200 uM
  apparent KD of MS2 coat protein: 24 nM
[4]
  apparent KD of MS2 coat protein: 23.5 nM
Input ligand: none
  apparent KD of MS2 coat protein: 35.1 nM

## UUAGAAUUGCAAGGAUAUCUAAUGUAGAUAGUAAGAGAAGGUGCUUGAUAGUUACAUGAGGAUCACCCAUGUAUUUGGGUUUAU [JR_SSNG1_Sub057] (Eterna round: R96, puzzle: Same State NG 1)
[4]
  apparent KD of MS2 coat protein: 345 nM

## GAGUGGCGGUUAGGAUAUACAGUGAUAAUGAUAGUAGAAGGAACUGACAUGAGGAUCACCCAUGUAGGACUAAUCCAGAGAGAG [Parity 31 - Jieux - Same State NG 1] (Eterna round: R96, puzzle: Same State NG 1)
Input ligand: FMN 200 uM
  apparent KD of MS2 coat protein: 43.6 nM
[4]
  apparent KD of MS2 coat protein: 21.7 nM
Input ligand: none
  apparent KD of MS2 coat protein: 33.7 nM

## GUGCGGGUAAGAGGAUAUACAAAUUCUCGUUCUGAGACGAGAACAUGAGGAUCACCCAUGUCUAAGUAGAAGGUUUCAGGCACC [Eternabot solution 28] (Eterna round: R96, puzzle: Same State NG 2)
Input ligand: FMN 200 uM
  apparent KD of MS2 coat protein: 21.3 nM
[4]
  apparent KD of MS2 coat protein: 18.2 nM
Input ligand: none
  apparent KD of MS2 coat protein: 23 nM

## AACCCACAUGAGGAUCACCCAUGUGUCUGAGGCACAGGAUAUCGACAGGCAAGACACCUGCGAGAAGGGUGACCUC [Same State 1 - Mod of Vinnie Diatater v.1] (puzzle: Same State 1)
[1]
  apparent KD of MS2 coat protein: 18.4 nM
[2]
  apparent KD of MS2 coat protein: 8.17 nM
[3]
  apparent KD of MS2 coat protein: 27.9 nM

## GCGGAGAGGUAAGGAUAUCCAUGGAAGAAACAUGAGGAUCACCCAUGUAGGAAGAAGACUAGGAGGGAGAAGGUACCGGGACGC [AK SSNG2-V2-20.1] (Eterna round: R96, puzzle: Same State NG 2)
Input ligand: FMN 200 uM
  apparent KD of MS2 coat protein: 29.2 nM
[4]
  apparent KD of MS2 coat protein: 26.2 nM
Input ligand: none
  apparent KD of MS2 coat protein: 40.5 nM

## GCCGCAAGGGCAGGAUAUGGGUCCAGAGUGCAAAUGCACUCCGGUACAUGAGGAUCACCCAUGUCCCAGAAGGGCCCAAGCGGC [Bilaatdi] (Eterna round: R96, puzzle: Same State NG 2)
Input ligand: FMN 200 uM
  apparent KD of MS2 coat protein: 12.8 nM
[4]
  apparent KD of MS2 coat protein: 144 nM
Input ligand: none
  apparent KD of MS2 coat protein: 163 nM

## UUGCUCGUGUGAGGAUAUGCAGCCGUUUCGGCUGCAGAAGGUACUAUAAUACAUGAGGAUCACCCAUGUCUCUGUUGUUUAGUG [salish99_SSNG1_r04_928] (Eterna round: R96, puzzle: Same State NG 1)
Input ligand: FMN 200 uM
  apparent KD of MS2 coat protein: 34 nM
[4]
  apparent KD of MS2 coat protein: 27.8 nM
Input ligand: none
  apparent KD of MS2 coat protein: 39.2 nM

## CUGCUCGUGUGAGGAUAUGCCGCCGUUUCGGCUGCAGAAGGUGCUACGUAACAUGAGGAUCACCCAUGUCUCUGUUGUUUCGUU [salish99_SSNG1_r04_949] (Eterna round: R96, puzzle: Same State NG 1)
Input ligand: FMN 200 uM
  apparent KD of MS2 coat protein: 37.4 nM
[4]
  apparent KD of MS2 coat protein: 35.2 nM
Input ligand: none
  apparent KD of MS2 coat protein: 34 nM

## AAAAGAAACGCAGGAUAUGCACAUGAGGAUCACCCAUGUCCCACGGGCUCGACCGAGCCUGUGAAGCAGAAGGGUGUAAGAAAA [Erleusor] (Eterna round: R96, puzzle: Same State NG 2)
Input ligand: FMN 200 uM
  apparent KD of MS2 coat protein: 54.1 nM
[4]
  apparent KD of MS2 coat protein: 208 nM
Input ligand: none
  apparent KD of MS2 coat protein: 74.7 nM

## UACAAUCUAUCUGAGGAUAUCAUGAAAUAAACAUGAGGAUCACCCAUGUGCAGGAAAACUGCAUAUGAGAAGGCAGAUAGAUUGU [salish99_ss2_r3_059] (puzzle: Same State 2)
[1]
  apparent KD of MS2 coat protein: 41.1 nM
[2]
  apparent KD of MS2 coat protein: 662 nM
[3]
  apparent KD of MS2 coat protein: 1640 nM

## GGUAUGGACACAGGAUAUGCUUACGAAACGUAAGCAGAAGGGUGAACAUGAGGAUCACCCAUGUACGUGCCAGGGCGUGAGCCC [JL SSNG1 1.77] (Eterna round: R96, puzzle: Same State NG 1)
Input ligand: FMN 200 uM
  apparent KD of MS2 coat protein: 1420 nM
[4]
  apparent KD of MS2 coat protein: 29.8 nM
Input ligand: none
  apparent KD of MS2 coat protein: 920 nM

## GGUCCAGCCUGAGCUGGACAAAAGCAUGUACAUGAGGAUCACCCAUGUUCAUGUACAAGCUUUUUGCUCGUCUUAAG [salish99_208a_r3_037] (puzzle: Sensor for hsa-mir-208a)
[1]
  apparent KD of MS2 coat protein: 719 nM
[2]
  apparent KD of MS2 coat protein: 18 nM
[3]
  apparent KD of MS2 coat protein: 740 nM

## AGAUGUUAAUUAGGAUAUGGGCACAUGAGGAUCACCCAUGUAACGUAGAUACGAUGUGGUCAAGUCUAGAAGGGAUAGCUAACA [SameState NG2 #77] (Eterna round: R96, puzzle: Same State NG 2)
Input ligand: FMN 200 uM
  apparent KD of MS2 coat protein: 72.5 nM
[4]
  apparent KD of MS2 coat protein: 59.3 nM
Input ligand: none
  apparent KD of MS2 coat protein: 70.6 nM

## GCCCAUAGUAUAUGGAUACAAGCUUUUUGACAUGAGGAUCACCCAUGUACUCGUCUUAUGUGCAGUCCGUAGACUGC [JL-shm-2.20 Brourd mod] (puzzle: Sensor for hsa-mir-208a)
[1]
  apparent KD of MS2 coat protein: 26.8 nM
[2]
  apparent KD of MS2 coat protein: 15.8 nM

## GGAGCCGGCACCGAGGAUAUUCAUAUUAAAACAUGAGGAUCACCCAUGUAGGCCAGAAGGCCUUGGGAGAAGGCGGACCGGCUCG [Xeonanis - 4] (puzzle: Same State 2)
[1]
  apparent KD of MS2 coat protein: 24 nM
[2]
  apparent KD of MS2 coat protein: 520 nM
[3]
  apparent KD of MS2 coat protein: 664 nM

## GAGGAUGAUUUACAGGAUAUAUAGGAGAUGACAUGAGGAUCACCCAUGUAAGAGAGAGGAGGGAGAUAGAAGGGUAAGGGAUGUG [JR_SS2_Sub42] (puzzle: Same State 2)
[1]
  apparent KD of MS2 coat protein: 44.3 nM
[2]
  apparent KD of MS2 coat protein: 42.2 nM
[3]
  apparent KD of MS2 coat protein: 59.5 nM
